How the values were obtained:
[1] = Biodistribution of radioiodinated (125I) proteins, modified avidin-type molecules and their complexes after i.v. injection
Procedure: (ii) Animals. Age-matched CD-1 male mice (6-12 weeks old) were used in the experiments.
(iii) Biodistribution experiments. Groups of age-(6-12 weeks) and weight-matched male CD-1 mice were given intravenous (i.v.) injections into the lateral tail vein of radioiodinated ^125I-TNP- or ^125I-lactosylated-St (most biodistribution experiments were done in the range of 1-10 μg protein, 1 mCi of ^125I) into the lateral tail vein. At the time intervals indicated, blood samples were withdrawn from the tail, the mice were killed and their organs were dissected out, washed in PBS, blotted dry, weighed and counted for radioactivity. […] In subsequent experiments, CD-1 male mice were used and the results are presented as %/g or %/organ for single a single mouse or %/g ±SD or %/organ ±SD for pairs of mice unless otherwise stated.
(ii) Radioiodination. Proteins (0.2 mg/0.2ml) in 0.2M phosphate buffer pH 8.0 were reacted for 2 min with Na^125I (0.5 mCi for biodistribution experiment and 2.5mCi for external monitoring) in the presence of Chloramine-T (2mg/ml, 10 or 100 μl) in PBS for 2 min. The reaction, which facilitates attachment of the radioactive iodine to tyrosines, was terminated by the addition of sodium metabisulfite (2mg/ml, 10 or 100 μl) in PBS for 2 min followed by the addition of potassium iodide and carrier BSA (1 mg of each/0.1 ml PBS). The radioiodinated proteins ^125I-TNP-proteins were then chromatographed on Sephadex G-25 in PBS. TNP modification can take place before or after radioiodination. Avidin and TNP-Av, being low in tyrosine content (molar ratio of 4 tyrosine/avidin as compared to 24 tyrosine/streptavidin), were radiolabeled by ^125I-biotinyl-tyrosine as described below in Example 6.

[2] = Toxicity studies: liver histology, body weight and survival; format: in vivo, CD-1 mice; details: dose of 300 μg, observed for 4 months
[3] = [3H] radioactivity in tissue extracts after BT1-CMdex-FUR ([3H]-uridine) alone or complexed to TNP-St; format: in vivo, mice; details: 1 and 4 h
Procedure: The actual targeting of FUR to the liver was carried out by a BT1-CMdex (T-40)-FUR product in which FUR was trace-labeled with [^3H] uridine. Mice were injected with BT1-CMdex-FUR-([^3H]-uridine) alone or complexed to TNP-St and at set time intervals blood was withdrawn, organs were dissected out and weighed. Tissue extracts were prepared by blending blood and organs in an Ika Werk Ultra-Turrax blender in 5× vol (ml)/tissue weight (g) of 0.1N NaOH for 30 sec. After centrifugation, 50 μl samples were counted for [^3H] radioactivity. Results are expressed as %/g tissue or %/organ. As shown in FIGS. 11A and 11B, levels of untargeted BT1-CMdex-FUR ([^3H]-uridine) were low. […] Radioactivity levels in other organs were in the range of 5%/g tissue or less than 1%/organ (FIG. 11B). It can be calculated that upon injection of 200μg TNP-St as a vehicle for BT1-CMdex-FUR, 25 μg of the drug can be accumulated per gram liver.

[4] = mouse, in vivo; cited from earlier work
[5] = Pt content in organs by flame atomic absorption spectrometry after CDDP complexed to BT1-CMdex-TNP-St or free CDDP; format: in vivo, mice; details: 2 h following injection of 300 μg free CDDP
Procedure: Pharmacokinetic studies confirmed the assumption of sustained release and prolonged maintenance of the complexed drug, as compared to the rapid elimination and inactivation of the free drug (Schechter et al., 1989a). Complexing CDDP to BT1-CMdex: BT1-CMdex (T-40) (0.15mM) was reacted with CDDP in DDW at a molar ratio of 1:60 for 24 h at 37° C. Following dialysis, the resulting BT1-CMdex-Pt contained 23-27 CDDP/CMdex. The complex BT1-CMdex-CDDP was reacted with TNP-St (at a ratio of 4:1) for targeting to the liver. […] To show the actual targeting of CDDP to the liver, CDDP was quantitatively determined in organs obtained at set time intervals following injection of 185 μg CDDP complexed to BT1-CMdex-TNP-St. Blood and organs were blended in an Ika Werk Ultra-Turrax blender (Jankel&Kunkel KG) in 5×Vol/tissue weight of 0.1N NaOH for 30 seconds. After centrifugation, the supernatants were filtered through Minisart 5 μm filter and the Pt content in the samples was determined by flame atomic absorption spectrometry (AA) at 265.9 nm in air-acetylene flame (in a Perkin Elmer 5100 PC spectrophotometer). Standards were prepared in a solution with matrix identical to that of the samples (i.e., normal tissues), to account for possible matrix interference. Results are expressed as %/g, i/organ or μg/organ in individual mice.

For “DTPA-Gd substituted St: Gd-DTPA derivative of streptavidin”, the liver accumulation ([1]; liver, 24 h, FIG. 16) was “did not accumulate in the liver”.
For “TNP-Av: avidin modified with 2,4,6-trinitrophenyl (TNP) groups”, the “accumulation in the liver” value ([1]; mouse, in vivo) was 30-40 %/g, the “accumulation in the spleen” value ([1]; mouse, in vivo) was 10-15 %/g and the “effect on body weight or survival” value [2] was “did not seem to affect”.
For `O=c1[nH]c(=O)n([C@@H]2O[C@H](CO)[C@@H](O)[C@H]2O)cc1F` [FUR, 5-fluorouridine], the “tissue levels of free drug” value [3] was “around 1 %/g tissue”.
In the case of streptavidin, the “accumulation in the kidney” value ([1]; mouse, in vivo) is reported as 70-80%, the blood levels ([1]; mouse, in vivo) is reported as 22-33 %/g and the “levels in other tissues, including the liver” value ([1]; mouse, in vivo) is reported as less than 10 %/g. The “% of the total injected dose accumulated in each kidney” value [4] was 15% and the “levels in other organs” value [4] was 0.3-4 %/g.
For “Lac-St: lactosylated streptavidin, molar substitution ratio 5:1”, the “non-hepatic values, fold lower than St or TNP-St” value ([1]; mouse, in vivo) was 10-20 fold.
For “TNP-NL-Av: TNP-modified NeutraLite Avidin, a deglycosylated form of avidin”, the “accumulation in the spleen” value ([1]; mouse, in vivo) was “up to 20 %/g”.
In the case of “^125I-BT-TNP-St: radioiodinated biotinyl-tyrosine complexed to TNP-streptavidin”, the “accumulation in whole liver, % of injected dose of radioactivity/organ” value ([1]; mouse, in vivo) is reported as 66-68%.
With `N.N.[Cl][Pt][Cl]` [CDDP, cis-dichlorodiamine platinum (cisplatin)] the “Pt in liver or other organs” value [5] was “essentially no Pt could be found”.
For “^125I-BT-St: radioiodinated biotinyl-tyrosine complexed to unmodified streptavidin”, the “accumulation in whole kidney, % of injected dose of radioactivity/organ” value ([1]; mouse, in vivo) was 10%.
